The target in this assay is Trx-6His-HRV3C-BCL6 (Thioredoxin-6His-tagged BCL6 BTB, uncleaved) (human), P41182. The assay is described as follows: AlphaScreen or HTRF; TR-FRET competition: 1 or 10 nM Trx-6His-BCL6 BTB, 300 nM BCOR-A633, 0.5 or 1 nM anti-6His-Terbium cryptate; 25 mM Hepes pH 8, 100 mM NaCl, 0.05% Tween20, 0.5 mM TCEP, 0.05% BSA; 2 h at room temperature. Background: Bead proximity is the source of the signal in Alpha formats.

The term IC50 denotes the concentration that gives 50% inhibition.

In turn, RSEIISTAPSSWVVPGP (modifications not checked) [unlabelled BCOR peptide (17 residue BCOR peptide)] displayed an IC50 of 8 µM.
